PMC6527160

B1: vRNA 5'G (ssRNA)
RNA: GCGCACCGGGGAUCCUAGGC
B2: vRNA 5' (ssRNA)
RNA: CGCACCGGGGAUCCUAGGC

Columns and labels:
[1] = molecular target: T1, LASV L protein Strep407 (Lassa virus Bantou 289, UniProt A0A3S8NV63 1-2217); test: EMSA; […]) pH 7.0, 150 mM NaCl ([…]; details: protein: recombinant; tags: internal StrepII-tag inserted after residue 407; chain copies: 2; label: 32P (5' end, T4 PNK); single strand
[2] = molecular target: T1, LASV L protein Strep407; test: EMSA; 0-1 uM L, 0.6 uM RNA; 4 mM Mg2+; […]) pH 7.0, 150 mM NaCl ([…]; details: protein: recombinant; tags: internal StrepII-tag inserted after residue 407; chain copies: 2; label: 32P (5' end, T4 PNK); single strand

Binder | binding result [1] | binding result [2]
B1 | binds | –
B2 | – | binds
